Laboratory results as given in patent US20250092426, “CAS ENDONUCLEASES AND RELATED METHODS” (Flagship Pioneering Innovations VII, LLC, published 2025).

Molecular target: T1, CasEnd-12 (synthetic construct)
T1 chain: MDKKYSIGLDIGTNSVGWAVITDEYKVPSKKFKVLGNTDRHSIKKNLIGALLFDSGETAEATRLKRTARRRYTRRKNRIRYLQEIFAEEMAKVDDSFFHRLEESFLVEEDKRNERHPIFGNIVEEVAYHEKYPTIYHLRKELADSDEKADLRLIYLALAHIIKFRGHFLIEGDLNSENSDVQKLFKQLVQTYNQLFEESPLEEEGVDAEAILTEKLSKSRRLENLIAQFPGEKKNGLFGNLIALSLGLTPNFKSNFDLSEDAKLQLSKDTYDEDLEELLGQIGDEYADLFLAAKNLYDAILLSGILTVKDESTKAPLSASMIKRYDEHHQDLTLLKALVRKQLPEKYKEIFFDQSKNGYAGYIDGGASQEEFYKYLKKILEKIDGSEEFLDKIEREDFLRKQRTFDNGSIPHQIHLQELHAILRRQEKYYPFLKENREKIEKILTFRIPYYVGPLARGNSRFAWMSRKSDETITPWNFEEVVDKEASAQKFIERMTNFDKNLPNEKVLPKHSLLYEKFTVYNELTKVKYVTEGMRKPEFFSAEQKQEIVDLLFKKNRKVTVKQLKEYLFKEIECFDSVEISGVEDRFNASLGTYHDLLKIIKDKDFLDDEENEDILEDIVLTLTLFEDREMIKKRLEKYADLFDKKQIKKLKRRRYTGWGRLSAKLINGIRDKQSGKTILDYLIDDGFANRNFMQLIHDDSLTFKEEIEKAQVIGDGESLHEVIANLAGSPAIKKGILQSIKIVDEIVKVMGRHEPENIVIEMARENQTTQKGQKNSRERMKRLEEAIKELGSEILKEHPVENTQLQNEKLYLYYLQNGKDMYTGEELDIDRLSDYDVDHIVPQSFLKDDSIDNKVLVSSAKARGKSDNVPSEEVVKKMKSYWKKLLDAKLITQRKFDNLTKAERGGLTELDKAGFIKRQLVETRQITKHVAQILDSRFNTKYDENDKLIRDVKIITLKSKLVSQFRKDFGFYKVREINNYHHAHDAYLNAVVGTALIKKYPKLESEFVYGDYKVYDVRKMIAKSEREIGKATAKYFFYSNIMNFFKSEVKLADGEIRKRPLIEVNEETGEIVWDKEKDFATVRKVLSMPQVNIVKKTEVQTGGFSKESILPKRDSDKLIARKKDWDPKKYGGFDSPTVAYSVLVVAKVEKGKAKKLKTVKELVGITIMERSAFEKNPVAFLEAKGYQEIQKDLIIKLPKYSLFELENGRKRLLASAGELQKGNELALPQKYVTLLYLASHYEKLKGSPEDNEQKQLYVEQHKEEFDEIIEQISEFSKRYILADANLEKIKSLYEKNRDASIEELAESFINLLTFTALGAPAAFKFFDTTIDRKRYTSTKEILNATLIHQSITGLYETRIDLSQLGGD
Experiment: cell_activity; +++; HEK293T; PAM not stated
Procedure: The ability of the candidate endonucleases, including endonucleases 1-38 (CasEnds 1-38) (set forth in Table 1 and SEQ ID NOS: 1-38, respectively), to mediate target nucleic acid editing was assessed utilizing a blue fluorescent protein (BFP) to green fluorescent protein (GFP) conversion assay, wherein programmed nucleotide editing of the BFP gene was measured by the expression of GFP (signifying the conversion of […] via the programmed nucleotide edit in the BFP gene). The conversion assay was conducted utilizing the reverse transcriptase-based system (as described above in Example 2) comprising a template RNA (designed to convert BFP to GFP) and a fusion protein comprising a retroviral reverse transcriptase and the individual subject Cas endonuclease. The amino acid sequence of the base portion of the fusion protein (without the individual subject Cas endonuclease) is set forth in Table 7 (SEQ ID NO: 43).
Briefly, 200 ng of plasmid DNA encoding the subject fusion protein (containing one of the subject CasEnds) and 200 ng of template RNA (in plasmid format) were added to 25 μL SF buffer containing 250,000 HEK293T BFP-expressing cells. Nucleofection was mediated utilizing program DS-150. The day of nucleofection was marked as day 0. At day 4, the cells were harvested and analyzed by flow cytometry to assess the level of BFP and GFP expression in HEK293T cells. Cells having GFP signal were defined as having undergone a successful editing event, and the percent of cells that were GFP+ on day 4 was used to determine the performance of each Cas endonuclease.

B1: BFP-to-GFP template RNA ; BFP reporter protospacer (ssRNA ; dsDNA)
RNA: GCCGAAGCACUGCACGCCGUGUUUUAGAGCUAGAAAUAGCAAGUUAAAAUAAGGCUAGUCCGUUAUCAACUUGAAAAAGUGGCACCGAGUCGGUGCACCCUGACGUACGGCGUGCAGUGCUU
DNA 1: GCCGAAGCACTGCACGCCGT
DNA 2: ACGGCGTGCAGTGCTTCGGC
- activity: ≥ 100 % of reference
